Key:
[1] = target: T1, collagen type I (rat tail) (Rattus norvegicus, UniProt P02454+P02466); assay: Collagen fibrillogenesis turbidity assay; type: biochemical
T1 construct: collagen type I (rat tail; Corning, UK); purchased Corning, UK; host or cells: rat tail (tissue-derived)
Experimental: Collagen fibrillogenesis: For the dose response curves, 75 µl of PBS was added to each well of a 96 well plate kept on ice. Varying hrDecorin doses were prepared by adding 400 μg/ml of hrDecorin to the first well and subsequently serial diluting (2-fold dilution) across the plate. Following dilution, a further 150 μl of PBS buffer was added to each well. Then, 75 μl of collagen type I (rat tail; Corning, UK) (800 μg/ml) was added to each well and incubated for 2 hours at 37° C. Subsequent absorbance readings were taken using a 405 nm plate reader. Each assay consisted of duplicate blank controls, and triplicate standard dilutions followed by triplicate sample dilutions. Kinetics of fibril formation were determined using a similar setup as the dose response, without serial dilution; incubating the samples within the plate reader, and taking data points every 2 minutes.
• Prepare diluent and reaction buffers by mixing sodium phosphate and sodium chloride and adjusting the pH to 7.4. • Add sample (Gellan fluid gel +Galacorin™ Galacorin only and Gellan only) to a 96 well plate and serial dilute using diluent buffer across the rows of the plate. • On ice, prepare collagen by mixing with cold water to a concentration of 0.8 mg/ml. • Add collagen to all wells. • Add reaction buffer to all wells and mix. • Incubate at 37° C. for 2 hours. • Read using a plate reader at 405 nm

fibrin gel = assay: Matrix breakdown assay (fibrin gel); type: biochemical; settings: trans-well above fibrin gel (8.5 mg/ml), 60° C.
Experimental: […] • Add 0.9 ml of gel to an Eppendorf. • To each gel add 0.1 ml of active in PBS. • Mix well using a vortex mixer. • Refrigerate for 24 hours before testing. • 0.5 ml of fibrin gel (8.5 mg/ml) was formed in the wells of a 24 well plate. • 0.5 ml of PBS was added to each well. • 0.1 ml of gel with active was added to a trans-well insert and placed above the fibrin gel. • Samples were incubated at 60° C. to activate the proteinase K. • Images were taken at various timepoints and compared to the control fibrin gel (pbs only) and fibrin gel with proteinase k added without a fluid gel carrier.

T1 sequence (P02454 152-1207 limits assumed): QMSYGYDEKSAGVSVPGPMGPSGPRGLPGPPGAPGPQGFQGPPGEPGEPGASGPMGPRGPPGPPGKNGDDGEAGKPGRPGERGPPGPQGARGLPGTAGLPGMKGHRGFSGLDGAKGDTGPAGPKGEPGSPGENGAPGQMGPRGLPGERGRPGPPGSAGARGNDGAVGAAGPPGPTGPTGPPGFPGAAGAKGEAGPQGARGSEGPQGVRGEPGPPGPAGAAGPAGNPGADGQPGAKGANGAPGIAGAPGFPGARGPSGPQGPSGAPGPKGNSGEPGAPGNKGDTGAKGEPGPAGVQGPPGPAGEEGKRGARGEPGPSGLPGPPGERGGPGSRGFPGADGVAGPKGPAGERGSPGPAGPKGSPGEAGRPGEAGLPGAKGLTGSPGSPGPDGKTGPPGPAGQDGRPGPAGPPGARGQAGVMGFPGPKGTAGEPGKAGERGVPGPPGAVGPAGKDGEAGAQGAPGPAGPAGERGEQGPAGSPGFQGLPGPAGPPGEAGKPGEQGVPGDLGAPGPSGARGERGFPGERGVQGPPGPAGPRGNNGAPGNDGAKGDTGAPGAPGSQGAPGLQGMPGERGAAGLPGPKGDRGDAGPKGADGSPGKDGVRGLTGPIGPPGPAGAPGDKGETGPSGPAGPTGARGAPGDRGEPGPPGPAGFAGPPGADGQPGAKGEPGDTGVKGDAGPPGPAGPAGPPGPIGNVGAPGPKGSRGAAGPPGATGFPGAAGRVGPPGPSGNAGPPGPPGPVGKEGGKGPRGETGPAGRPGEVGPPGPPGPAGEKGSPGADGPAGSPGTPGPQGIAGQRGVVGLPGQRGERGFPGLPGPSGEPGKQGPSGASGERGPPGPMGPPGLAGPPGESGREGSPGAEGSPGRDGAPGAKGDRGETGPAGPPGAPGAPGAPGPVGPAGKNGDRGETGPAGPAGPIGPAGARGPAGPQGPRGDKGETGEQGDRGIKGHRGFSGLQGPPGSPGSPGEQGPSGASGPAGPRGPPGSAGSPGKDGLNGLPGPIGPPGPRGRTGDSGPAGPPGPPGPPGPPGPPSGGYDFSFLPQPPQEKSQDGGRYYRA
T1 sequence (P02466 86-1125 limits assumed): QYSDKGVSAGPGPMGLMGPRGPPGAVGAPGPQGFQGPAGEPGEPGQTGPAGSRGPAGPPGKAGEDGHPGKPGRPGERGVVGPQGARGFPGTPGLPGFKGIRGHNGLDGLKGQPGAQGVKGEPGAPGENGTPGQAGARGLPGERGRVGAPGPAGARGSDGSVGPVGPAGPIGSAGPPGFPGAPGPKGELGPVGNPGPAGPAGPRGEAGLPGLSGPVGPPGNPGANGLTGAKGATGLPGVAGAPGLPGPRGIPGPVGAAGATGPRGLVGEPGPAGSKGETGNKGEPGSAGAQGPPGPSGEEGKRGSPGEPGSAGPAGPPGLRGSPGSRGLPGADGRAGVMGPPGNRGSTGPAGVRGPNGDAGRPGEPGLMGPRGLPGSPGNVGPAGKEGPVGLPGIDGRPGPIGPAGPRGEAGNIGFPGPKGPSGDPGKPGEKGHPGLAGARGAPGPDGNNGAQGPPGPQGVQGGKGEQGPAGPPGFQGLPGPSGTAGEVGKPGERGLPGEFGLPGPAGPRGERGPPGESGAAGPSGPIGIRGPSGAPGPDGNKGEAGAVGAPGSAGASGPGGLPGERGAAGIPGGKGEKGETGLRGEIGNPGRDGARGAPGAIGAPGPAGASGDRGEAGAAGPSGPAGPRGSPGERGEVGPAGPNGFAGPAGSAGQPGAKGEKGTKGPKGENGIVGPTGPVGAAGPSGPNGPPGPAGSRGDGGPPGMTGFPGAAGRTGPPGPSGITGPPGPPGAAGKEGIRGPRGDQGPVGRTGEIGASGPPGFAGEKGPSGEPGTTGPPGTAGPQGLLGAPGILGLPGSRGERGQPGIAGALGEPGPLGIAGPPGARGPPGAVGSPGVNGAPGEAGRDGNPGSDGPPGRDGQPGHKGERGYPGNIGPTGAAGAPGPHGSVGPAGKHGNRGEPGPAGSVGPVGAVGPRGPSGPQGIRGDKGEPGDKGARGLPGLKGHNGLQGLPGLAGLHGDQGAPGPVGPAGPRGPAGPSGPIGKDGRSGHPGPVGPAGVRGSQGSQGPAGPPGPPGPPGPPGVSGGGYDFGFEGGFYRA

Molecule	effect on collagen fibrillogenesis (fibril formation) ([1]; turbidity at 405 nm vs collagen only control)	critical concentration above which fibrillogenesis is inhibited ([1]; turbidity at 405 nm, 2 hours at 37° C.)	concentration at which minimum turbidity is achieved ([1]; turbidity at 405 nm, no further reduction above)	breakdown of fibrin gel (fibrin gel)
hrDecorin: human recombinant decorin sold by Catalent Pharma Solutions under the name Galacorin™ (protein, UniProt P07585 31-359, looked up) Decorin: DEASGIGPEVPDDRDFEPSLGPVCPFRCQCHLRVVQCSDLGLDKVPKDLPPDTTLLDLQNNKITEIKDGDFKNLKNLHALILVNNKISKVSPGAFTPLVKLERLYLSKNQLKELPEKMPKTLQELRAHENEITKVRKVTFNGLNQMIVIELGTNPLKSSGIENGAFQGMKKLSYIRIADTNITSIPQGLPPSLTELHLDGNKISRVDAASLKGLNNLAKLGLSFNSISAVDNGSLANTPHLRELHLDNNKLTRVPGGLAEHKYIQVVYLHNNNISVVGSSDFCPPGHNTKKASYSGVSLFSNPVQYWEIQPSTFRCVYVRSAIQLGNYK	slowing the onset of fibrillogenesis	0.5 μg/ml	> 10000 ng/mL	
Proteinase K: extracellular matrix remodelling agent proteinase K (protein, UniProt P06873 106-384, looked up) Proteinase K: AAQTNAPWGLARISSTSPGTSTYYYDESAGQGSCVYVIDTGIEASHPEFEGRAQMVKTYYYSSRDGNGHGTHCAGTVGSRTYGVAKKTQLFGVKVLDDNGSGQYSTIIAGMDFVASDKNNRNCPKGVVASLSLGGGYSSSVNSAAARLQSSGVMVAVAAGNNNADARNYSPASEPSVCTVGASDRYDRRSSFSNYGSVLDIFGPGTSILSTWIGGSTRSISGTSMATPHVAGLAAYLMTLGKTTAASACRYIADTANKGDLSNIPFGTVNLLAYNNYQA				faster

— patent US20220362145A1, “THERAPEUTIC HYDROGEL COMPOSITIONS” (THE UNIVERSITY OF BIRMINGHAM, priority 2018, published 2022)
